Source: article PMC9482650, “Quantitative fragmentomics allow affinity mapping of interactomes” (Nature Communications, 2022)

T1: HTRA3, P83110
T1 sequence (P83110 354-453, limits assumed, looked up): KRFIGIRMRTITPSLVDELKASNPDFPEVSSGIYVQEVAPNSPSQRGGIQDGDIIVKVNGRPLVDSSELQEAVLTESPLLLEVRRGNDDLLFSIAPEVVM

T2: DLG3_1, Q92796
T2 sequence (Q92796 125-227, limits assumed, looked up): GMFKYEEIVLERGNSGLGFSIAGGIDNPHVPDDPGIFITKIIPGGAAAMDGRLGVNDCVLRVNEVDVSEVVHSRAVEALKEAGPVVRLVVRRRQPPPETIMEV

T3: PDZD2_2, O15018
T3 sequence (O15018 329-429, limits assumed, looked up): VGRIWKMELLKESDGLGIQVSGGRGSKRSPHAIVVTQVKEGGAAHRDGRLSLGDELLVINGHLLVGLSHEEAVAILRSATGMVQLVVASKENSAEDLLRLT

T4: LIN7A, O14910
T4 sequence (O14910 103-200, limits assumed, looked up): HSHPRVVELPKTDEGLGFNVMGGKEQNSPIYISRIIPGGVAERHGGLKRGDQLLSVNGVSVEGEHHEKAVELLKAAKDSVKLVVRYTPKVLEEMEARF

T5: MPDZ_5, O75970
T5 sequence (O75970 695-796, limits assumed, looked up): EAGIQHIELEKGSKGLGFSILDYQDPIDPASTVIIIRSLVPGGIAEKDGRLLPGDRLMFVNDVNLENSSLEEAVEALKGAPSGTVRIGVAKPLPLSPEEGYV

T6: NHERF3_4, Q5T2W1
T6 sequence (Q5T2W1 373-468, limits assumed, looked up): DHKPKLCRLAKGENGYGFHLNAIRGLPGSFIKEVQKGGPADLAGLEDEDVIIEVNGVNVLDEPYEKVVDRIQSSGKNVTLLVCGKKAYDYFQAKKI

T7: SNTB1, Q13884
T7 sequence (Q13884 107-205, limits assumed, looked up): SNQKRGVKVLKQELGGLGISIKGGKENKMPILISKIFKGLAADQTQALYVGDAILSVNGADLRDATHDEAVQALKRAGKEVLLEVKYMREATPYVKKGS

T8: NHERF3_3, Q5T2W1
T8 sequence (Q5T2W1 238-333, limits assumed, looked up): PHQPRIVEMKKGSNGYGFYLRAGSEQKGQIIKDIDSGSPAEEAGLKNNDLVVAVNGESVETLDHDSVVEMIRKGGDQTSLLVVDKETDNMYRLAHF

T9: DLG3_2, Q92796
T9 sequence (Q92796 221-321, limits assumed, looked up): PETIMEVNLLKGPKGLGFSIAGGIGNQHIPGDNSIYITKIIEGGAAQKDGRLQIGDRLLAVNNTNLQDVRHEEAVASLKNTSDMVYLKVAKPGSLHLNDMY

T10: RHPN1, Q8TCX5
T10 sequence (Q8TCX5 508-602, limits assumed, looked up): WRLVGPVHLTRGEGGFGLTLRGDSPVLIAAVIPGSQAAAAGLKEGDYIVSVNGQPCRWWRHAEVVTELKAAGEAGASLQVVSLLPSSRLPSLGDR

T11: GRIP1_7, Q9Y3R0
T11 sequence (Q9Y3R0 999-1096, limits assumed, looked up): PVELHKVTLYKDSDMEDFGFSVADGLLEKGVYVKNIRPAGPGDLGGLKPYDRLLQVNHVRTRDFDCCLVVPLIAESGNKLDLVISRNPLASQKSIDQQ


Columns and labels:
Assay in all cases: holdup assay
Design in all cases: key: below the threshold = too weak to quantify, mostly under pKd 3.1 to 4
Conditions in all cases: plain residues with an end cap or a label only (N-terminal biotin on a linker: ado-ado)
Inadl_5, Q8NI35 = target: Inadl_5, Q8NI35
Inadl_5, Q8NI35, sequence (Q8NI35 673-780): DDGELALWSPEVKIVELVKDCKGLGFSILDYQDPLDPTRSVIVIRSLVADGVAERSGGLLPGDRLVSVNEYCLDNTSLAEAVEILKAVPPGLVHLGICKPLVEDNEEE

HTRA3, P83110 = target: T1, HTRA3, P83110
LAP2, Q96RT1 = target: LAP2, Q96RT1
LAP2, Q96RT1, sequence (Q96RT1 other isoform, or with tags, fused parts or gaps): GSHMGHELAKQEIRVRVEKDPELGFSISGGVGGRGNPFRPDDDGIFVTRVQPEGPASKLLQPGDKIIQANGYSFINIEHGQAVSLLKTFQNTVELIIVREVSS

DLG3_1, Q92796 = target: T2, DLG3_1, Q92796
PDZD2_2, O15018 = target: T3, PDZD2_2, O15018
LIN7A, O14910 = target: T4, LIN7A, O14910
MPDZ_5, O75970 = target: T5, MPDZ_5, O75970
CASK, O14936 = target: CASK, O14936
CASK, O14936, sequence (O14936 487-570): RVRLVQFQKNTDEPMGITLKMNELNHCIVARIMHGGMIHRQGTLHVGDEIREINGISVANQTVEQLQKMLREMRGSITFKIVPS

FRMPD2_3, Q68DX3 = target: FRMPD2_3, Q68DX3
FRMPD2_3, Q68DX3, sequence (Q68DX3 1073-1166): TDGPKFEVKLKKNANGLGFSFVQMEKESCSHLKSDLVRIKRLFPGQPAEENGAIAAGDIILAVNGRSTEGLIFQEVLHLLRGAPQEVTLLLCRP

GRID2IP_1, A4D2P6 = target: GRID2IP_1, A4D2P6
GRID2IP_1, A4D2P6, sequence (A4D2P6 1-87): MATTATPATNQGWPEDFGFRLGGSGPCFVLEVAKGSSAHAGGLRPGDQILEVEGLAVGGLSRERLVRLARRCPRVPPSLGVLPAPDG

NHERF3_4, Q5T2W1 = target: T6, NHERF3_4, Q5T2W1
SNTB1, Q13884 = target: T7, SNTB1, Q13884
TJP1_2, Q07157 = target: TJP1_2, Q07157
TJP1_2, Q07157, sequence (Q07157 181-274): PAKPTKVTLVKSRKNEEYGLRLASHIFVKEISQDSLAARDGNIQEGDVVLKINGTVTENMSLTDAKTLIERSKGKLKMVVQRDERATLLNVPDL

MAGI3_2, Q5TCQ9 = target: MAGI3_2, Q5TCQ9
MAGI3_2, Q5TCQ9, sequence (Q5TCQ9 398-503): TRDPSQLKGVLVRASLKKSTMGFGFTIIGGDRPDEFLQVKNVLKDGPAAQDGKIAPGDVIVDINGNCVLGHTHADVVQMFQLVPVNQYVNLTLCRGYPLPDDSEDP

GORASP1, Q9BQQ3 = target: GORASP1, Q9BQQ3
GORASP1, Q9BQQ3, sequence (Q9BQQ3 1-208): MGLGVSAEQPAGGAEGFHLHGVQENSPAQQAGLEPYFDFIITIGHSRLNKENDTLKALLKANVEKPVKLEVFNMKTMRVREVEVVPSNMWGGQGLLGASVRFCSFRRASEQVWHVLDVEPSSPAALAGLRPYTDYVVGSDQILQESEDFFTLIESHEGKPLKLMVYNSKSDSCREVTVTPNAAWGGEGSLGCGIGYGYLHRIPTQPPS

NHERF3_3, Q5T2W1 = target: T8, NHERF3_3, Q5T2W1
DLG3_2, Q92796 = target: T9, DLG3_2, Q92796
FRMPD2_1, Q68DX3 = target: FRMPD2_1, Q68DX3
FRMPD2_1, Q68DX3, sequence (Q68DX3 770-861): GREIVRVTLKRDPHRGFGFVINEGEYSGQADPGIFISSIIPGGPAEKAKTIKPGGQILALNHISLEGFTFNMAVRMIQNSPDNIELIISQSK

SCRIB_2, Q14160 = target: SCRIB_2, Q14160
SCRIB_2, Q14160, sequence (Q14160 857-960): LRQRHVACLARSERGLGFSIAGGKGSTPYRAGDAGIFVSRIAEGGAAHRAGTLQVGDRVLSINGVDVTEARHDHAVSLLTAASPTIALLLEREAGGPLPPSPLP

MAGI2_6, Q86UL8 = target: MAGI2_6, Q86UL8
MAGI2_6, Q86UL8, sequence (Q86UL8 1141-1229): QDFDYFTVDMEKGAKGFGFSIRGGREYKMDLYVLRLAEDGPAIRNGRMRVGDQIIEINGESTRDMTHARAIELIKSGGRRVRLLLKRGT

RHPN1, Q8TCX5 = target: T10, RHPN1, Q8TCX5
GORASP2, Q9H8Y8 = target: GORASP2, Q9H8Y8
GRIP1_7, Q9Y3R0 = target: T11, GRIP1_7, Q9Y3R0
MAGI1_1, Q96QZ7 = target: MAGI1_1, Q96QZ7
MAGI1_1, Q96QZ7, sequence (Q96QZ7 1-106): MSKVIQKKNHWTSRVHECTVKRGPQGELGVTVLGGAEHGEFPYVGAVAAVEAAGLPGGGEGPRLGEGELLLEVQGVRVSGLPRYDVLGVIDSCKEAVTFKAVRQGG

DLG4_1, P78352 = target: DLG4_1, P78352
DLG4_1, P78352, sequence (P78352 62-152): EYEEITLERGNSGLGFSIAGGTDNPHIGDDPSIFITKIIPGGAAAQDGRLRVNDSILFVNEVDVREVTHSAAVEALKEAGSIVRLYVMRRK

Inadl_8, Q8NI35 = target: Inadl_8, Q8NI35
Inadl_8, Q8NI35, sequence (Q8NI35 1425-1530): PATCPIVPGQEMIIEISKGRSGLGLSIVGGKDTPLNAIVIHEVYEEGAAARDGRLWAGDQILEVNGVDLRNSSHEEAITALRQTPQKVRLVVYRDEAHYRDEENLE

FRMPD2_2, Q68DX3 = target: FRMPD2_2, Q68DX3
FRMPD2_2, Q68DX3, sequence (Q68DX3 944-1038): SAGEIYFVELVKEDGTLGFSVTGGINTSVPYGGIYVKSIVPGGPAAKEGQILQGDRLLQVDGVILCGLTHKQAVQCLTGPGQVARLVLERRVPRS

Binder	pKd (Inadl_5, Q8NI35)	pKd (HTRA3, P83110)	pKd (LAP2, Q96RT1)	pKd (DLG3_1, Q92796)	pKd (PDZD2_2, O15018)	pKd (LIN7A, O14910)	pKd (MPDZ_5, O75970)	pKd (CASK, O14936)	pKd (FRMPD2_3, Q68DX3)	pKd (GRID2IP_1, A4D2P6)	pKd (NHERF3_4, Q5T2W1)	pKd (SNTB1, Q13884)	pKd (TJP1_2, Q07157)	pKd (MAGI3_2, Q5TCQ9)	pKd (GORASP1, Q9BQQ3)	pKd (NHERF3_3, Q5T2W1)	pKd (DLG3_2, Q92796)	pKd (FRMPD2_1, Q68DX3)	pKd (SCRIB_2, Q14160)	pKd (MAGI2_6, Q86UL8)	further results
EIPAQSPTCV [FZD10, Q9ULW2]	below the threshold	3.95	3.73	3.72	4.49	3.48	below the threshold	3.59	3.77	3.72	below the threshold	3.75	3.78	4.12	3.85	3.57	3.88	3.92	below the threshold	3.85	pKd (RHPN1, Q8TCX5): below the threshold; pKd (GORASP2, Q9H8Y8): 3.98; pKd (GRIP1_7, Q9Y3R0): 3.67; pKd (MAGI1_1, Q96QZ7): 3.79; pKd (DLG4_1, P78352): 4.01; pKd (Inadl_8, Q8NI35): 4.35; pKd (FRMPD2_2, Q68DX3): 3.74
DPAESMESLV [PTPRG, P23470]	below the threshold	below the threshold	3.96	4.23	5.16	3.7	below the threshold	below the threshold	below the threshold	below the threshold	below the threshold	4.84	below the threshold	4.84	below the threshold	below the threshold	4.72	below the threshold	3.68	4.16	pKd (RHPN1, Q8TCX5): 4.17; pKd (GORASP2, Q9H8Y8): below the threshold; pKd (GRIP1_7, Q9Y3R0): below the threshold; pKd (MAGI1_1, Q96QZ7): below the threshold; pKd (DLG4_1, P78352): 4.59; pKd (Inadl_8, Q8NI35): below the threshold; pKd (FRMPD2_2, Q68DX3): 4.54
TISFTQTSQF [SLC1A1, P43005]	below the threshold	below the threshold	below the threshold	below the threshold	below the threshold	below the threshold	below the threshold	below the threshold	below the threshold	below the threshold	4.41	below the threshold	below the threshold	below the threshold	below the threshold	below the threshold	4.08	below the threshold	below the threshold	below the threshold	pKd (RHPN1, Q8TCX5): 3.73; pKd (GORASP2, Q9H8Y8): below the threshold; pKd (GRIP1_7, Q9Y3R0): below the threshold; pKd (MAGI1_1, Q96QZ7): below the threshold; pKd (DLG4_1, P78352): below the threshold; pKd (Inadl_8, Q8NI35): below the threshold; pKd (FRMPD2_2, Q68DX3): below the threshold
DFLSTFHIRI [CIB2, O75838]	below the threshold	below the threshold	below the threshold	below the threshold	3.71	below the threshold	below the threshold	below the threshold	below the threshold	below the threshold	3.66	below the threshold	below the threshold	4.3	4.59	below the threshold	3.97	below the threshold	below the threshold	below the threshold	pKd (RHPN1, Q8TCX5): below the threshold; pKd (GORASP2, Q9H8Y8): 4.46; pKd (GRIP1_7, Q9Y3R0): below the threshold; pKd (MAGI1_1, Q96QZ7): below the threshold; pKd (DLG4_1, P78352): below the threshold; pKd (Inadl_8, Q8NI35): below the threshold; pKd (FRMPD2_2, Q68DX3): below the threshold
